Each block holds one binder with its values, some of them ahead of it. Where no end group is shown, it is not given here.
Experiments:
[1] = biological target: T1, IGF binding protein-3 (IGFBP-3) (human, UniProt P17936 28-291, 125-I-labeled when used as probe in the dot blot); assay: dot blot on nitrocellulose probed with 125-I-labeled IGFBP-3, autoradiography and densitometry (FIG. 17A)
T1 construct: also called hIGFBP-3; non glycosylated hIGFBP-3

[2] = biological target: T1, IGF binding protein-3 (IGFBP-3); assay: dot blot of peptides probed with 125-I-labeled IGFBP-3 (FIG. 17A)

T1 sequence (P17936 28-291 limits assumed): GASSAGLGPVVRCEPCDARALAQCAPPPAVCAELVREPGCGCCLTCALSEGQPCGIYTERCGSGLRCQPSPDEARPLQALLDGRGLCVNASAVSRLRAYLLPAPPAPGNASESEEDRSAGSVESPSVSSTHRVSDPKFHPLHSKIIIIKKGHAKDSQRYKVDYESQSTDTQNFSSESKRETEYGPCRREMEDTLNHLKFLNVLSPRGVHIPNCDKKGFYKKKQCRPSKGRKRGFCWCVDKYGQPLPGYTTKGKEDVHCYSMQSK

Binder: MAPRGASCLLLLTSEIDLPVKRRA (also called F6A HN; F6A-HN) [Humanin analog F6A]
binding result [1]: no binding (tested: 50 ng of peptide blotted)

binding result [2]: binds
B1: Humanin (peptide)
peptide: MAPRGFSCLLLLTSEIDLPVKRRA
notes: 50 ng was spotted on nitrocellulose in the dot blot; also called HN; human humanin

Binder: MAPRGASCLLLLTGEIDLPVKRRA (not fully specified, also called F6AHNG; HN) [Humanin analog HNGF6A]
binding result [1]: no binding (tested: 50 ng of peptide blotted)

Source: patent US20100204099A1 (ALBERT EINSTEIN COLLEGE OF MEDICINE OF YESHIVA UNIVERSITY, published 2010)
